Reference: paper PMC6090299, “Quantitative Analysis of Interaction Between CADM1 and Its Binding Cell-Surface Proteins Using Surface Plasmon Resonance Imaging” (Frontiers in Cell and Developmental Biology, 2018)

Molecular target: T1, CADM1-Fc (human (by the printed RefSeq entry), UniProt Q9BY67-1 45-374)
T1 construct: signal peptide in the construct; CADM1 extracellular domain, NP_055148, 1-374 a.a; Human IgG2-Fc fragment from pFUSE-hIgG2-Fc1; Glycosylated; also called cell adhesion molecule 1 extracellular domain fused with Fc; source: FreeStyle 293-F cells, transiently transfected, purified from the supernatant (Protein G Sepharose); not shown: Fc (human IgG2), C-terminal, kept
T1 sequence (looked up): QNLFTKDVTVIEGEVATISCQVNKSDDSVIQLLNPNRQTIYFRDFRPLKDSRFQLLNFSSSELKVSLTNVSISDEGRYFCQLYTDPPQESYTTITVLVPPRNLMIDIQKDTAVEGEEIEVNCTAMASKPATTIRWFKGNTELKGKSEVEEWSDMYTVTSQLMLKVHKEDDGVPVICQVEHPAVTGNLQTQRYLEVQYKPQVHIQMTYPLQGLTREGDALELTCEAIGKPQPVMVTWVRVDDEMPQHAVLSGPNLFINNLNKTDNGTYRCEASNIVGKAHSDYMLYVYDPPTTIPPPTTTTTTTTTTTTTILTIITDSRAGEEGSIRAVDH
Experiment: SPR; SPR imaging (OpenPlex); the 10 IgSF-Fc proteins (7-24 μM) spotted in hexaplicate and immobilised by amine coupling; 2.4 μM CADM1-Fc injected for 4 min; 25°C; PBS with 0.2% BSA and 0.02% Tween20, 50 μL/min; signal of normal human IgG subtracted
Details: both partners purified

B1: CRTAM-Fc (Fc fusion, human (by the printed RefSeq entry), UniProt O95727-1 18-287, looked up)
chain: SLTNHTETITVEEGQTLTLKCVTSLRKNSSLQWLTPSGFTIFLNEYPALKNSKYQLLHHSANQLSITVPNVTLQDEGVYKCLHYSDSVSTKEVKVIVLATPFKPILEASVIRKQNGEEHVVLMCSTMRSKPPPQITWLLGNSMEVSGGTLHEFETDGKKCNTTSTLIIHTYGKNSTVDCIIRHRGLQGRKLVAPFRFEDLVTDEETASDALERNSLSSQDPQQPTSTVSVTEDSSTSEIDKEEKEQTTQDPDLTTEANPQYLGLARKKSG
notes: signal peptide in the construct; CRTAM extracellular domain, NP_062550, 1-287 a.a; Human IgG2-Fc fragment from pFUSE-hIgG2-Fc1; also called class-I MHC-restricted T-cell-associated molecule; source: FreeStyle 293-F cells, transiently transfected, purified from the supernatant (Protein G Sepharose); not shown: Fc (human IgG2), C-terminal, kept
- Kd: 3.3 nM
- koff: 0.00011 s⁻¹
- kon: 31000 M⁻¹ s⁻¹
